The supplement of paper PMC12042874
± gives the uncertainty stated by the source.

Test: amyloid nucleation score (Sup35N fusion, yeast selection) (log enrichment); library NNK2; higher = more nucleation; inactive = no reads after selection
Method in brief: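 Psi-negative yeast expressed Sup35N fused to peptides of 20 random codons. They were induced 24 hours with 100 μM copper sulfate, grown 7 days at 30°C without adenine and uracil, and their plasmid inserts from input and output were Illumina-sequenced. The nucleation score is the DiMSum log enrichment of output over input reads, centred on the mode score of non-aggregating sequences. Sequences with under 100 input reads were excluded.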

| Substance | amyloid nucleation score |
| --- | --- |
| WSSKGVCYEVLCRFKVLQ | 2.99 ± 0.084 |
| IPLLCKFCSRGSRAKIYLMD | 1.75 ± 0.095 |
| AVTIMCPAGLTMANSLVFKQ | 5.18 ± 0.07 |
| VLTNKLQVTVCLLC | 8.448 ± 0.046 |
| NLAGKGAITDRFSQVRSGQS | 1.4 ± 0.25 |
| GPSMCFGEFKVYAEVSWSQA | 0.095 ± 0.34 |
| FSSCSDRLGHGLNSLTKHLI | -0.737 ± 0.39 |
| WMWDFFYTGLLMRTF | inactive |
| IKSVFMCYWGLDAVGVTAER | 8.785 ± 0.047 |
| GEGGANVMCRVAGIIR | 1.17 ± 0.17 |
| GDGLEMCWVA | -0.226 ± 0.37 |
| VICRGVHSHSLGWGSCITCS | -0.98 ± 0.48 |
| VSDLKVAQNCANKVIKLRYR | 5.01 ± 0.072 |
| MSLLYGS | 0.523 ± 0.64 |
| SNCGVLD | inactive |
| WESCWIHLFHLSIHLTTNFY | 2.08 ± 0.088 |
| DLTHWSANSTCSSCVEFHLR | 3.99 ± 0.086 |
| LCVVY | -0.237 ± 0.35 |
| ACQAFTCW | 0.967 ± 0.26 |
| ISEIQDLLGSALTH | 2.09 ± 0.079 |
| SSCISHGGRK | -0.546 ± 0.45 |
| PFNQDMLTIQIGTSIISRSS | -0.172 ± 1.1 |
| RFDDASGDMVNAEG | 4.6 ± 0.05 |
| YDKFPRNVGESYEHRCSWSE | 0.458 ± 0.8 |
| SRCGIWPWLRHDKVD | 0.853 ± 0.18 |

| Substance | amyloid nucleation score |
| --- | --- |
| VNVPYIRMIDHLLTYTQL | -0.081 ± 1.1 |
| PFVGSSGTWP | 1.5 ± 0.12 |
| GKTISNFLGMTTSCEFGR | -0.81 ± 1 |
| IVPRIKSAMLLKF | -0.301 ± 0.21 |
| DTPITDCELPAYFQVITNWL | 0.007 ± 0.76 |
| SGVPYVNNMEASELSWGKIP | inactive |
| PHHMIDAGASPSLN | -1.52 ± 0.62 |
| VTGNKEVMKIRCWVAHEESY | 0.436 ± 0.49 |
| LIDLKGQRSHGVTKGLTDFP | -0.406 ± 0.36 |
| WYGCMVIAQWGFYYENNTSW | inactive |
| AHHRCHWYECVMMPRHGPRP | 1.26 ± 0.33 |
| THCKGIYLSCMTSDFVHSYY | inactive |
| CSALLYW | 1.29 ± 0.61 |
| HGRKNFSVGVVVVLWLRLFV | 5.63 ± 0.081 |
| EMYVNFMHVDGDGVPQHDAW | 0.929 ± 0.37 |
| SVSCIKFIHSLAEYGMSKEN | 0.697 ± 0.16 |
| KLALVDIGLVPVIAIMCWMS | 0.877 ± 0.14 |
| EITSKMSSWGSLTASALTIS | -0.104 ± 0.48 |
| FGDLGLIVRDSKSLLGSIKQ | 0.053 ± 0.79 |
| FGVITNSGCGRLFAEEKTRW | 1.15 ± 0.16 |
| HWCLLNSPNYIEMSLNDFLY | 3.62 ± 0.053 |
| GTLPYDNRTTYAFYLRVCSL | inactive |
| SCDWRAGPSSATRTR | 1.24 ± 0.35 |
| VSYFPYRDVLGTINNV | 0.729 ± 0.54 |
| SMDFNNDC | inactive |

| Substance | amyloid nucleation score |
| --- | --- |
| VKSMFLYTASSADPERGVYG | -1.27 ± 1.1 |
| LRFLVGVHAAYYIHTS | -0.649 ± 0.79 |
| KMSYVYP | -0.622 ± 0.41 |
| CGLVAVNDYLGVRVGLFHIC | -1.01 ± 1.1 |
| EFCIHVSVLINPRGSNYDKW | -0.487 ± 1.1 |
| CHRNFITCLYAMYSELVLVL | 0.648 ± 0.54 |
| TSLDRRICKRGTVIVEIPHA | 5.28 ± 0.055 |
| FDTRLSNFFPF | -0.636 ± 0.76 |
| FYRRNNSPYSFAVRCGVWFL | inactive |
| KTIFGGWSARSGNISMPSWM | 0.267 ± 0.54 |
| DTGNMVSEKPGGILSDMGRI | inactive |
| GLGALVGVTLYRRTQQNMWG | 6.313 ± 0.056 |
| TFHFQTRLCYLALYDHAIYA | -0.242 ± 0.79 |
| SWLSQKSLESALRAIMNGKY | 2.13 ± 0.16 |
| YNSLVRMRTRYIGR | 0.025 ± 0.46 |
| CNMGLRYTSYLI | -0.212 ± 0.34 |
| MYRIDD | 6.83 ± 0.088 |
| TFLVLLRVMVWVV | 0.648 ± 0.6 |
| QYSFKVDKTCRSVH | 0.147 ± 0.76 |
| TYKMKNMGICIYRYARLGDC | 0.372 ± 0.74 |
| RWFFEQDIIYLSRVRGDFRV | inactive |
| LRSCSCIGKLDEEPGGFACA | -0.956 ± 0.78 |
| NIRNDVLNQLT | 2.11 ± 0.14 |
| IILRCNKDFEALACIVVSRR | inactive |
| HYSFRSIAGLQAVCGDNCMD | 0.427 ± 0.52 |

| Substance | amyloid nucleation score |
| --- | --- |
| SCHSFRFKPNGFVL | -0.575 ± 0.49 |
| FYLISWKWVKHVGIFA | -0.618 ± 1.1 |
| VTTSTLMYWRGRTGALLAPS | 1.84 ± 0.22 |
| DEMVDAFYYSAM | 0.35 ± 0.8 |
| TMIYMHRLLLNVVDVCCHWF | 0.261 ± 0.74 |
| SVSSKGNLGA | 0.11 ± 0.22 |
| ISFSSTSIHFGD | 1.04 ± 0.11 |
| SDDWIDYRCNPGRGSKEAMA | 4.6 ± 0.098 |
| LRFCYKEATV | 0.016 ± 0.65 |
| SYCKPTVIACVMLSCQQ | 8.866 ± 0.067 |
| ALDHSV | -0.271 ± 1 |
| NVDRFKVINLS | inactive |
| SSIGYVDYAEFEAGFFIYIV | -0.823 ± 0.44 |
| NDSNIRINNFFGNFTFGREL | 7.485 ± 0.041 |
| STSKDLMYDCL | inactive |
| ILMMNLNAADRIVNMHMSIL | inactive |
| FRLHLKEFDGVPRWCQYTF | inactive |
| GFICMVMDKCYYRGRNFVGV | -0.106 ± 0.44 |
| EALSLLSR | -0.22 ± 1 |
| LYYASGRIRFCLHWHLIARV | 4.894 ± 0.041 |
| SVVAVFLKYCVVADSATGV | 0.001 ± 0.76 |
| WYWPCKGTREFKFNLYECSG | 0.517 ± 0.41 |
| MEYPRLRSHNTAIFTLFQRP | 5.38 ± 0.055 |
| FQLPFIVFRRMIVYLKWRWG | -1.05 ± 0.78 |
| GVLKVLLLAPISFTVVCHSS | 3.65 ± 0.055 |

| Substance | amyloid nucleation score |
| --- | --- |
| WSFDIAVTAR | inactive |
| YVRFEVLRWLLYRYTMVSQD | 0.661 ± 0.49 |
| YNVTTMYNYYLICISLATMY | 7.09 ± 0.08 |
| TDLWFRLATRCNDNDAFFL | -0.981 ± 1.1 |
| HVEWMTCWLVSNNTDPRWDR | 0.911 ± 0.27 |
| YGKYSFSWEIRCLCEMTTKN | -0.608 ± 0.78 |
| IFYIVGYFAHLMMWNTRRDG | inactive |
| QKNLEGLPEVEGNRRRCVVR | 0.033 ± 0.52 |
| LILRGDS | -0.913 ± 0.4 |
| RNVCGCPGCYFNVDAILLWY | -1.2 ± 1.1 |
| RHRSNCMRRSTVSVGNVRES | 0.427 ± 0.23 |
| DFYACTWKDSCCGHEGRSAC | 0.634 ± 0.43 |
| RYFDWYNI | -1.28 ± 0.45 |
| KFDLSCNPNSPGSLRYTLNN | inactive |
| MLDMVIYCISLYCSYTLRMR | 1.42 ± 0.58 |
| IRCVNIKSLP | -1.24 ± 1.1 |
| SAQNDEKFLDPVSVIPRCKS | 0.443 ± 0.56 |
| LNVTSLLIVRLRCVFLHPTD | 2.15 ± 0.44 |
| IHVICCAGRVARCFVSEIMG | 0.674 ± 0.48 |
| AYSVRLDLSCDQRCSF | 4.366 ± 0.041 |
| TGSVREYCGEVPWRLCDDRV | 0.244 ± 0.62 |
| FWVKKLYLGIGSHVWNMGFN | inactive |
| PWIAGCNMRTNWFNILNCPV | -0.583 ± 0.38 |
| IRVYRGGLFNSLKKENVGAC | inactive |
| YNLCSSCNIQWWCSRMHQQK | 8.858 ± 0.055 |

| Substance | amyloid nucleation score |
| --- | --- |
| NMMWCVKHYKSVRSLLGCLV | -0.891 ± 0.54 |
| RTIVFTLWRDGITKFMVNRD | 0.452 ± 0.43 |
| DCNTCKDKPWNAINQPNKKA | 0.121 ± 0.23 |
| CKWEFKWPYWGDYLVFMCK | -0.679 ± 1.1 |
| IFYWLIHHRLMYDFFCRVLT | -0.995 ± 0.76 |
| IDDDIFVMCCIEKHVLVCEF | 3.26 ± 0.047 |
| RCVKNKLWTYMGGNISYTSS | 2.14 ± 0.1 |
| YIQLGWGLSKTWSHLTGELA | 2.34 ± 0.14 |
| DIMLAPHNSVDNGSRKEYGA | 0.424 ± 0.64 |
| VFDGVSSGTCHLCAAWSWDG | 1.56 ± 0.14 |
| SWSAIEPQVPKYYYSL | -0.623 ± 0.79 |
| PTPYKGRLLFPHHSGLYLIG | -1.23 ± 1.1 |
| WAEPYFRCDGSSRIFSQGNA | inactive |
| QTLMLRSCYNWYPCGAAVVP | 2.5 ± 0.093 |
| DIRSRINMLRYTFF | inactive |
| HSSISVCVYSRLPCH | -0.447 ± 0.36 |
| RHMLYVGMSHNPRLGPSSLG | 0.511 ± 0.38 |
| IIVIVWQGWSNGVGLHSCGA | 3.15 ± 0.063 |
| PALPTVNLNS | -0.475 ± 0.42 |
| ALGINFSWACG | 4.998 ± 0.043 |
| MWRAQFIYLRMQLVVACVGI | 0.394 ± 0.33 |
| AISCSVTWNVTMTSGLTPLC | 1.17 ± 0.37 |
| DGEYPHQYSLEVLLLRLRH | 5.071 ± 0.049 |
| MVSSIGILASWYTSIVWFGY | -0.191 ± 1.1 |
| AFDIFFNVVWRPFVHSCLAR | 0.041 ± 0.56 |

| Substance | amyloid nucleation score |
| --- | --- |
| CRDLKFYAGTRWGKCCMYSA | -0.476 ± 0.32 |
| VLPRGD | 0.125 ± 0.4 |
| TSWVYDEYVVCLPSWASYVL | -0.509 ± 1.1 |
| GGSGSDYLSPSGIVEGYRLG | -0.663 ± 0.54 |
| TWGYGRDVCVRSERSGWYLS | 0.859 ± 0.28 |
| ACIYRQRDS | -0.332 ± 0.56 |
| YGNCVHHVRGGLHAYRDHNC | -0.137 ± 0.33 |
| TYIFSHTAGYNFG | inactive |
| EYSFIHLEIKNTVLKRVLTP | 1.66 ± 0.32 |
| RFSLRRNCAMAQWLISATCS | 0.37 ± 0.3 |
| NRELV | -1.67 ± 0.64 |
| SPHNTARLESAEDQSSMCEP | 1.55 ± 0.23 |
| RMQHKHASVKGPTCVIQCTD | 1.62 ± 0.34 |
| QCGRKFFDNRGGGLITPHPV | 0.107 ± 0.42 |
| AYGQKNVSSRSLTFV | 3.41 ± 0.15 |
| GPTSVRISPPGVCVLCPPSP | 0.133 ± 0.31 |
| STLWVAKGH | -0.064 ± 1.1 |
| KGGEVEGLSLR | -0.889 ± 0.63 |
| VHPGTR | 4.08 ± 0.065 |
